Measurements published in paper PMC10256740.
Read-outs that look alike come from different tables or passages of the source.

Legend:
[1] = molecular target: FLAG-tagged BicD2-Kif1bα tail fusion (mouse) (UniProt Q60575); experiment: centrosome recruitment assay with BicD2-kinesin tail fusions (relocalisation in cells, microscopy); N2A cells transfected with FLAG-BicD2-KIF tail fusion and EGFP-tagged RBP (2:3), fixed after 24 h, anti-FLAG staining; read-out log2 of the mean EGFP intensity at the centrosome over the mean intensity in the whole cell
[2] = molecular target: FLAG-tagged BicD2-Kif1c tail fusion (mouse) (UniProt O35071); experiment: as above
[3] = molecular target: FLAG-tagged BicD2-Kif1c tail fusion (mouse) (UniProt O35071); experiment: as above; remark: listed apart in the source
[4] = molecular target: mScarlet-I-Kif1c (full-length kinesin) (mouse) (UniProt O35071); experiment: co-IP; N2A cells 48 h after co-transfection of EGFP-MBNL1-41 and mScarlet-Kif plasmids; lysis in 10 mM Tris-HCl pH 7.5, 150 mM NaCl, 0.5 mM EDTA, 0.5% NP-40; RFP-Trap magnetic agarose 1 h at 4 °C; western blot, quantitation normalized to input
[5] = molecular target: mScarlet-I-Kif1bα (full-length kinesin) (mouse) (UniProt Q60575); experiment: as above
Sequence of mScarlet-I-Kif1bα (full-length kinesin) (mouse) (Q60575 other isoform, or with tags, fused parts or gaps): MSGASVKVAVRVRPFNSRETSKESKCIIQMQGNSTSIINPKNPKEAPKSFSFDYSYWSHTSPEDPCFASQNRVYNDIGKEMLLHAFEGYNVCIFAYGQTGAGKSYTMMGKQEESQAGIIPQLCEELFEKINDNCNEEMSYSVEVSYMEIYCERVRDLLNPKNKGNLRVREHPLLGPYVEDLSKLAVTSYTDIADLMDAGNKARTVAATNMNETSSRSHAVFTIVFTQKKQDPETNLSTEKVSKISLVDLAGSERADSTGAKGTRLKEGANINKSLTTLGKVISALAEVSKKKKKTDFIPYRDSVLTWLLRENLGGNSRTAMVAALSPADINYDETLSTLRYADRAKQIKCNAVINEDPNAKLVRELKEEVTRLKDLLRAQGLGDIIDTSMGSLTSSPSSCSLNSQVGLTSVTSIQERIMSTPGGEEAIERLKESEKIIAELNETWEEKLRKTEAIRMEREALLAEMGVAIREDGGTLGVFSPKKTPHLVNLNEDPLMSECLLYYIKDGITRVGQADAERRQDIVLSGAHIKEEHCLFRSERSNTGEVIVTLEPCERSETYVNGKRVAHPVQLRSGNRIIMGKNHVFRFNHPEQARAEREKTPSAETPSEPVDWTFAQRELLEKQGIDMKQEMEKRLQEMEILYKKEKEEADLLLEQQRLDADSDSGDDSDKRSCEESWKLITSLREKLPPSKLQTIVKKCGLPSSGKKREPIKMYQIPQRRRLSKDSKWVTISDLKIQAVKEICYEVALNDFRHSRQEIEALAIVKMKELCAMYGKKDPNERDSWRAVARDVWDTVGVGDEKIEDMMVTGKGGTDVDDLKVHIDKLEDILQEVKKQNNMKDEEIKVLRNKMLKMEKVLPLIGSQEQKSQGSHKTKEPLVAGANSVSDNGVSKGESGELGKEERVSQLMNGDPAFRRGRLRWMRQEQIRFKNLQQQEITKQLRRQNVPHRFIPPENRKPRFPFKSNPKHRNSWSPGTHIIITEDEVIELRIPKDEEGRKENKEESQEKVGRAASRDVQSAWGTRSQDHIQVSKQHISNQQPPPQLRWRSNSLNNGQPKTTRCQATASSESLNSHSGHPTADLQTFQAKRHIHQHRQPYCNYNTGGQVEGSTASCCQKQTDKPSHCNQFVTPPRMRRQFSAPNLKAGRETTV

Sequence of EGFP-MBNL1-41 (41 kDa isoform of MBNL1) (natural protein) (Q9NR56 whole entry, canonical isoform): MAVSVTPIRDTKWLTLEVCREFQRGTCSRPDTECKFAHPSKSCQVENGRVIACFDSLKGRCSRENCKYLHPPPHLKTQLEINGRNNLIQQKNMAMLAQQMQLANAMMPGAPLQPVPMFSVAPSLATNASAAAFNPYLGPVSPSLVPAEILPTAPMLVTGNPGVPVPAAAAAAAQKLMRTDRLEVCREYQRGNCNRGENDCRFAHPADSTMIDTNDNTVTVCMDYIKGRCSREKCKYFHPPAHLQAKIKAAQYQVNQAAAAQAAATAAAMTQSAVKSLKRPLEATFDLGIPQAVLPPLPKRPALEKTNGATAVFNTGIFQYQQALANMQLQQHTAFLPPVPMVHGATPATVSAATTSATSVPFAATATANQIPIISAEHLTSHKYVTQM
Sequence of FLAG-tagged BicD2-Kif1c tail fusion (mouse) (O35071 whole entry, the tested form may be a part): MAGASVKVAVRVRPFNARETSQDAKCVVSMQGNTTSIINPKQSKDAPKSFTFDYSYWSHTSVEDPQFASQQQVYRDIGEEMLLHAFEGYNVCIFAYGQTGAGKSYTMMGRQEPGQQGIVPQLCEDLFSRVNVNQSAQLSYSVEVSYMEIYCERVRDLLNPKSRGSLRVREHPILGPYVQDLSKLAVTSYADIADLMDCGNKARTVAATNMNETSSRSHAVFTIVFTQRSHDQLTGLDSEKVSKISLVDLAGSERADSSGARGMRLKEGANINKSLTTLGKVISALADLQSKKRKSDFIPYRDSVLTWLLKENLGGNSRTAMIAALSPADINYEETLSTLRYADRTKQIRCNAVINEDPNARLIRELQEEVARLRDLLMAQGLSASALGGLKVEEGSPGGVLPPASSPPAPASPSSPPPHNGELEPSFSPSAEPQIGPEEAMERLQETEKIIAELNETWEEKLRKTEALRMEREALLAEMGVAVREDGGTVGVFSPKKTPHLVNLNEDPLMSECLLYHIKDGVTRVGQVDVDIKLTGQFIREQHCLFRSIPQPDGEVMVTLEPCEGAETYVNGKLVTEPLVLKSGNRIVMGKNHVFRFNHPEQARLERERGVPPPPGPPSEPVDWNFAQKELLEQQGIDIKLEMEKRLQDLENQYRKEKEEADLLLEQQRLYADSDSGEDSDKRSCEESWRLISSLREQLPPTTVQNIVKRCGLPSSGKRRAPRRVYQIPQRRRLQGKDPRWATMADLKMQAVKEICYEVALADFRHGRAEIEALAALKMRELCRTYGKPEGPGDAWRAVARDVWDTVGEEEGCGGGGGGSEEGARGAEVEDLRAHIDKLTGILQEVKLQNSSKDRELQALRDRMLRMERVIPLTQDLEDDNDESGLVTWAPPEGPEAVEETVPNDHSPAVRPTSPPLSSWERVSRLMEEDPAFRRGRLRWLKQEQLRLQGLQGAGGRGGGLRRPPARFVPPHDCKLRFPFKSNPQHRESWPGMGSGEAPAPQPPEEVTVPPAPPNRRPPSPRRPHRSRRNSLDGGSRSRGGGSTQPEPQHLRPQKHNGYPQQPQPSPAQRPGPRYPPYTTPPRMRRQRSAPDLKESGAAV
Sequence of EGFP-Cpsf4 (Q8BQZ5 whole entry): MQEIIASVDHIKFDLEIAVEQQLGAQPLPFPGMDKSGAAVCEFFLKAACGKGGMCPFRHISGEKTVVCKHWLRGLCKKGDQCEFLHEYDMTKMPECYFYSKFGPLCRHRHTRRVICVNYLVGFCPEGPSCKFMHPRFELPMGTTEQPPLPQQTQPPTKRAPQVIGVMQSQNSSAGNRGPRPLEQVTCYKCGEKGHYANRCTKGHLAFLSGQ
Sequence of FLAG-tagged BicD2-Kif1bα tail fusion (mouse) (Q60575 other isoform, or with tags, fused parts or gaps): as the sequence (Q60575 other isoform, or with tags, fused parts or gaps) above
Sequence of mScarlet-I-Kif1c (full-length kinesin) (mouse) (O35071 whole entry): as the sequence (O35071 whole entry, the tested form may be a part) above

Row | log2 mean centrosome recruitment [1] | log2 mean centrosome recruitment [2] | log2 mean centrosome enrichment [1] | log2 mean centrosome enrichment [2] | log2 mean centrosome enrichment [3] | fold enrichment of co-precipitated EGFP-MBNL1 as compared to Kif1bβ [4] | fold enrichment of co-precipitated EGFP-MBNL1 as compared to Kif1bβ [5] | Substance
1 | 1.71 log2 | 1.52 log2 |  |  |  |  |  | EGFP-Cpsf4 (from UniProt Q8BQZ5 1-211) (natural protein)
2 |  |  | 0.506 log2 | 0.56 log2 | 0.497 log2 | 10 fold | 10 fold | EGFP-MBNL1-41 (41 kDa isoform of MBNL1) (natural protein)
